Data as given in US20150344570A1 (published 2015).
Read-outs that look alike come from different tables or passages of the source.

T1: FcγRIIb extracellular domain with C-terminal His tag (human, UniProt P31994 43-217)
T1 construct: extracellular domain; Soluble receptor used as analyte in Biacore; also called FcgRIIb
T1 sequence (looked up): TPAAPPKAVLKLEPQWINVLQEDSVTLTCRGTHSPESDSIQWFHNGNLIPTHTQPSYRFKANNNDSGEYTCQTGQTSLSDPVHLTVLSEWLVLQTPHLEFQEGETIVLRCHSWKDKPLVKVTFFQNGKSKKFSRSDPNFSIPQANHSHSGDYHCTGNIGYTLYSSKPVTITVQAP

T2: FcγRIIa H (FcγRIIa type H, His at position 131), extracellular domain with C-terminal His tag (human, UniProt P12318 34-217)
T2 construct: extracellular domain; expressed in FreeStyle293 cells; also called FcgRIIa H; 2aH; not shown: His tag attached to the C terminus
T2 sequence (looked up): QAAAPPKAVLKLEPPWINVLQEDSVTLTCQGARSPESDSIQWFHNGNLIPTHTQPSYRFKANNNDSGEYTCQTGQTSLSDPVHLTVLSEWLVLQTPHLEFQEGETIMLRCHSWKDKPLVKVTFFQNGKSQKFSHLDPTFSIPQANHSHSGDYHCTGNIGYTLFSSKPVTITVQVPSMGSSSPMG

T3: FcγRIIb, extracellular domain with C-terminal His tag (human, UniProt P31994 43-217)
T3 construct: extracellular domain; expressed in FreeStyle293 cells; also called FcgRIIb; 2b; not shown: His tag attached to the C terminus
T3 sequence (looked up): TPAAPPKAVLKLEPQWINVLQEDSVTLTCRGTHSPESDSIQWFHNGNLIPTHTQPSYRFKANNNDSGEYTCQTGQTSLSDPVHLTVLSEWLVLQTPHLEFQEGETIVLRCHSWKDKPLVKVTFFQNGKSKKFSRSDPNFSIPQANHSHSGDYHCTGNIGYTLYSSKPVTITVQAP


How the values were obtained:
[1] = molecular target: T1, FcγRIIb extracellular domain with …; assay: SPR (Biacore), antibody captured, FcγR as analyte; binding relative to GpH7-A5/GpH7-B3/GpL16-k0 = 100
[2] = molecular target: T4, FcγRIa extracellular domain with C-terminal His tag (human, UniProt P12314 16-292); assay: as above
T4 construct: extracellular domain; Soluble receptor used as analyte in Biacore; also called FcgRI

[3] = molecular target: T2, FcγRIIa H (FcγRIIa type H, His at …); assay: SPR (Biacore); He/Con_2aH divided by He/Con_2b (FcγRIIa H against FcγRIIb)
[4] = molecular target: T3, FcγRIIb, extracellular domain with …; assay: SPR (Biacore), antibody captured on antigen peptide chip, FcγR as analyte; relative to GpH7-A5/GpH7-B3/GpL16-k0 = 100
[5] = molecular target: T2, FcγRIIa H (FcγRIIa type H, His at …); assay: as above
[6] = molecular target: T1, FcγRIIb extracellular domain with …; assay: SPR (Biacore), antibody captured, FcγR as analyte; binding relative to GpH7-A5/GpH7-B3/GpL16-k0 = 100; remark: listed apart in the source
[7] = molecular target: T4, FcγRIa extracellular domain with …; assay: as above; remark: listed apart in the source
[8] = molecular target: T4, FcγRIa extracellular domain with …; assay: ratio He/Con_1a : He/Con_2b (FcγRIa over FcγRIIb), SPR (Biacore)

T4 sequence (P12314 16-292): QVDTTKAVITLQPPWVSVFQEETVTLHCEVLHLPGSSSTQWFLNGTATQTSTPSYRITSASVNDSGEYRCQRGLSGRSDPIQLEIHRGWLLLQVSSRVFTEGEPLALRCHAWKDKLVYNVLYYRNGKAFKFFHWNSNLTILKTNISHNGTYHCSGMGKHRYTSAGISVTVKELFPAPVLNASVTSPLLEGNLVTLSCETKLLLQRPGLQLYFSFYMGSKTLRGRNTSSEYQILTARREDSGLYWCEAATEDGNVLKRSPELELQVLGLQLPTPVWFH

Row | Binder | He/Con_2b [1] [control = 100] | He/Con_1a [2] [control = 100] | He_2aH/2b (IIaH/IIb) [3] [ratio] | He/Con_2b (relative binding activity) [4] | He/Con_2aH (relative binding activity) [5] | other results
1 | GpH7-A5/GpH7-B3 variant I332_02A/GpL16-k0 (antibody, human IgG1, kappa, Heterodimerized IgG1, mutation in the GpH7-B3 chain only; also called He Ab) heavy 1: not shown heavy 2: not shown light: DIVMTQSPLSLPVTPGEPASISCQASESLVHSNRNTYLHWYLQKPGQSPQLLIYKVSNRFSGVPDRFSGSGSGTDFTLKISRVEAEDVGVYYCSQNTHVPPTFGQGTKVEIERTVAAPSVFIFPPSDEQLKSGTASVVCLLNNFYPREAKVQWKVDNALQSGNSQESVTEQDSKDSTYSLSSTLTLSKADYEKHKVYACEVTHQGLSSPVTKSFNRGEC | 103 | 88.3 | – | – | – | –
2 | GpH7-A5/GpH7-B3 variant P238_07I/GpL16-k0 (antibody, human IgG1, kappa, Heterodimerized antibody (He Ab): mutation in the GpH7-B3 chain only; also called He Ab) heavy 1: not shown heavy 2: not shown light: DIVMTQSPLSLPVTPGEPASISCQASESLVHSNRNTYLHWYLQKPGQSPQLLIYKVSNRFSGVPDRFSGSGSGTDFTLKISRVEAEDVGVYYCSQNTHVPPTFGQGTKVEIERTVAAPSVFIFPPSDEQLKSGTASVVCLLNNFYPREAKVQWKVDNALQSGNSQESVTEQDSKDSTYSLSSTLTLSKADYEKHKVYACEVTHQGLSSPVTKSFNRGEC | – | – | 0.72 | 80 % of HeCon Ab (= 100) | 57.6 % of HeCon Ab (= 100) | –
3 | GpH7-A5/GpH7-B3 variant V266_12R/GpL16-k0 (antibody, human IgG1, kappa, Heterodimerized IgG1, mutation in the GpH7-B3 chain only; also called He Ab) heavy 1: not shown heavy 2: not shown light: DIVMTQSPLSLPVTPGEPASISCQASESLVHSNRNTYLHWYLQKPGQSPQLLIYKVSNRFSGVPDRFSGSGSGTDFTLKISRVEAEDVGVYYCSQNTHVPPTFGQGTKVEIERTVAAPSVFIFPPSDEQLKSGTASVVCLLNNFYPREAKVQWKVDNALQSGNSQESVTEQDSKDSTYSLSSTLTLSKADYEKHKVYACEVTHQGLSSPVTKSFNRGEC | – | – | – | – | – | He/Con_2b [6]: -1.1 control = 100; He/Con_1a [7]: 59.2 control = 100; He_1a/2b (Ia/IIb) [8]: -55.6
4 | GpH7-A5/GpH7-B3 variant V266_08L/GpL16-k0 (antibody, human IgG1, kappa, Heterodimerized IgG1, mutation in the GpH7-B3 chain only; also called He Ab) heavy 1: not shown heavy 2: not shown light: DIVMTQSPLSLPVTPGEPASISCQASESLVHSNRNTYLHWYLQKPGQSPQLLIYKVSNRFSGVPDRFSGSGSGTDFTLKISRVEAEDVGVYYCSQNTHVPPTFGQGTKVEIERTVAAPSVFIFPPSDEQLKSGTASVVCLLNNFYPREAKVQWKVDNALQSGNSQESVTEQDSKDSTYSLSSTLTLSKADYEKHKVYACEVTHQGLSSPVTKSFNRGEC | – | – | – | – | – | He/Con_2b [6]: 236 control = 100; He/Con_1a [7]: 98.1 control = 100; He_1a/2b (Ia/IIb) [8]: 0.42
5 | GpH7-A5/GpH7-B3 variant I332_06M/GpL16-k0 (antibody, human IgG1, kappa, Heterodimerized IgG1, mutation in the GpH7-B3 chain only; also called He Ab) heavy 1: not shown heavy 2: not shown light: DIVMTQSPLSLPVTPGEPASISCQASESLVHSNRNTYLHWYLQKPGQSPQLLIYKVSNRFSGVPDRFSGSGSGTDFTLKISRVEAEDVGVYYCSQNTHVPPTFGQGTKVEIERTVAAPSVFIFPPSDEQLKSGTASVVCLLNNFYPREAKVQWKVDNALQSGNSQESVTEQDSKDSTYSLSSTLTLSKADYEKHKVYACEVTHQGLSSPVTKSFNRGEC | 105 | 92.3 | – | – | – | –
6 | GpH7-A5/GpH7-B3 variant P238_13S/GpL16-k0 (antibody, human IgG1, kappa, Heterodimerized antibody (He Ab): mutation in the GpH7-B3 chain only; also called He Ab) heavy 1: not shown heavy 2: not shown light: DIVMTQSPLSLPVTPGEPASISCQASESLVHSNRNTYLHWYLQKPGQSPQLLIYKVSNRFSGVPDRFSGSGSGTDFTLKISRVEAEDVGVYYCSQNTHVPPTFGQGTKVEIERTVAAPSVFIFPPSDEQLKSGTASVVCLLNNFYPREAKVQWKVDNALQSGNSQESVTEQDSKDSTYSLSSTLTLSKADYEKHKVYACEVTHQGLSSPVTKSFNRGEC | – | – | 0.72 | 70.4 % of HeCon Ab (= 100) | 50.9 % of HeCon Ab (= 100) | –
7 | GpH7-A5/GpH7-B3 variant V266_07I/GpL16-k0 (antibody, human IgG1, kappa, Heterodimerized IgG1, mutation in the GpH7-B3 chain only; also called He Ab) heavy 1: not shown heavy 2: not shown light: DIVMTQSPLSLPVTPGEPASISCQASESLVHSNRNTYLHWYLQKPGQSPQLLIYKVSNRFSGVPDRFSGSGSGTDFTLKISRVEAEDVGVYYCSQNTHVPPTFGQGTKVEIERTVAAPSVFIFPPSDEQLKSGTASVVCLLNNFYPREAKVQWKVDNALQSGNSQESVTEQDSKDSTYSLSSTLTLSKADYEKHKVYACEVTHQGLSSPVTKSFNRGEC | – | – | – | – | – | He/Con_2b [6]: 152 control = 100; He/Con_1a [7]: 99.3 control = 100; He_1a/2b (Ia/IIb) [8]: 0.65
8 | GpH7-A5/GpH7-B3 variant I332_14T/GpL16-k0 (antibody, human IgG1, kappa, Heterodimerized IgG1, mutation in the GpH7-B3 chain only; also called He Ab) heavy 1: not shown heavy 2: not shown light: DIVMTQSPLSLPVTPGEPASISCQASESLVHSNRNTYLHWYLQKPGQSPQLLIYKVSNRFSGVPDRFSGSGSGTDFTLKISRVEAEDVGVYYCSQNTHVPPTFGQGTKVEIERTVAAPSVFIFPPSDEQLKSGTASVVCLLNNFYPREAKVQWKVDNALQSGNSQESVTEQDSKDSTYSLSSTLTLSKADYEKHKVYACEVTHQGLSSPVTKSFNRGEC | 106 | 91.8 | – | – | – | –
9 | GpH7-A5/GpH7-B3 variant I332_04F/GpL16-k0 (antibody, human IgG1, kappa, Heterodimerized IgG1, mutation in the GpH7-B3 chain only; also called He Ab) heavy 1: not shown heavy 2: not shown light: DIVMTQSPLSLPVTPGEPASISCQASESLVHSNRNTYLHWYLQKPGQSPQLLIYKVSNRFSGVPDRFSGSGSGTDFTLKISRVEAEDVGVYYCSQNTHVPPTFGQGTKVEIERTVAAPSVFIFPPSDEQLKSGTASVVCLLNNFYPREAKVQWKVDNALQSGNSQESVTEQDSKDSTYSLSSTLTLSKADYEKHKVYACEVTHQGLSSPVTKSFNRGEC | 104 | 93.6 | – | – | – | –
10 | GpH7-A5/GpH7-B3 variant P331_20W/GpL16-k0 (antibody, human IgG1, kappa, Heterodimerized IgG1, mutation in the GpH7-B3 chain only; also called He Ab) heavy 1: not shown heavy 2: not shown light: DIVMTQSPLSLPVTPGEPASISCQASESLVHSNRNTYLHWYLQKPGQSPQLLIYKVSNRFSGVPDRFSGSGSGTDFTLKISRVEAEDVGVYYCSQNTHVPPTFGQGTKVEIERTVAAPSVFIFPPSDEQLKSGTASVVCLLNNFYPREAKVQWKVDNALQSGNSQESVTEQDSKDSTYSLSSTLTLSKADYEKHKVYACEVTHQGLSSPVTKSFNRGEC | 111 | 94.5 | – | – | – | –
11 | GpH7-A5/GpH7-B3 variant P238_10E/GpL16-k0 (antibody, human IgG1, kappa, Heterodimerized antibody (He Ab): mutation in the GpH7-B3 chain only; also called He Ab) heavy 1: not shown heavy 2: not shown light: DIVMTQSPLSLPVTPGEPASISCQASESLVHSNRNTYLHWYLQKPGQSPQLLIYKVSNRFSGVPDRFSGSGSGTDFTLKISRVEAEDVGVYYCSQNTHVPPTFGQGTKVEIERTVAAPSVFIFPPSDEQLKSGTASVVCLLNNFYPREAKVQWKVDNALQSGNSQESVTEQDSKDSTYSLSSTLTLSKADYEKHKVYACEVTHQGLSSPVTKSFNRGEC | – | – | 0.33 | 232 % of HeCon Ab (= 100) | 77.1 % of HeCon Ab (= 100) | –
12 | GpH7-A5/GpH7-B3 variant P238_09D/GpL16-k0 (antibody, human IgG1, kappa, Heterodimerized antibody (He Ab): mutation in the GpH7-B3 chain only; also called He Ab) heavy 1: not shown heavy 2: not shown light: DIVMTQSPLSLPVTPGEPASISCQASESLVHSNRNTYLHWYLQKPGQSPQLLIYKVSNRFSGVPDRFSGSGSGTDFTLKISRVEAEDVGVYYCSQNTHVPPTFGQGTKVEIERTVAAPSVFIFPPSDEQLKSGTASVVCLLNNFYPREAKVQWKVDNALQSGNSQESVTEQDSKDSTYSLSSTLTLSKADYEKHKVYACEVTHQGLSSPVTKSFNRGEC | – | – | 0.4 | 221 % of HeCon Ab (= 100) | 87.5 % of HeCon Ab (= 100) | –
13 | GpH7-A5/GpH7-B3 variant P238_08L/GpL16-k0 (antibody, human IgG1, kappa, Heterodimerized antibody (He Ab): mutation in the GpH7-B3 chain only; also called He Ab) heavy 1: not shown heavy 2: not shown light: DIVMTQSPLSLPVTPGEPASISCQASESLVHSNRNTYLHWYLQKPGQSPQLLIYKVSNRFSGVPDRFSGSGSGTDFTLKISRVEAEDVGVYYCSQNTHVPPTFGQGTKVEIERTVAAPSVFIFPPSDEQLKSGTASVVCLLNNFYPREAKVQWKVDNALQSGNSQESVTEQDSKDSTYSLSSTLTLSKADYEKHKVYACEVTHQGLSSPVTKSFNRGEC | – | – | 0.41 | 204 % of HeCon Ab (= 100) | 84.6 % of HeCon Ab (= 100) | –
14 | GpH7-A5/GpH7-B3 variant I332_15Y/GpL16-k0 (antibody, human IgG1, kappa, Heterodimerized IgG1, mutation in the GpH7-B3 chain only; also called He Ab) heavy 1: not shown heavy 2: not shown light: DIVMTQSPLSLPVTPGEPASISCQASESLVHSNRNTYLHWYLQKPGQSPQLLIYKVSNRFSGVPDRFSGSGSGTDFTLKISRVEAEDVGVYYCSQNTHVPPTFGQGTKVEIERTVAAPSVFIFPPSDEQLKSGTASVVCLLNNFYPREAKVQWKVDNALQSGNSQESVTEQDSKDSTYSLSSTLTLSKADYEKHKVYACEVTHQGLSSPVTKSFNRGEC | 101 | 88.8 | – | – | – | –
